Where a chain is given by its changes, count along the chain named.
T1: recombinant human FLT3 protein (human, UniProt P36888 27-541)
T1 construct: also called recombinant FLT3 protein; human recombinant FLT3 protein (10445-H08H, Sino Biological)
T1 sequence: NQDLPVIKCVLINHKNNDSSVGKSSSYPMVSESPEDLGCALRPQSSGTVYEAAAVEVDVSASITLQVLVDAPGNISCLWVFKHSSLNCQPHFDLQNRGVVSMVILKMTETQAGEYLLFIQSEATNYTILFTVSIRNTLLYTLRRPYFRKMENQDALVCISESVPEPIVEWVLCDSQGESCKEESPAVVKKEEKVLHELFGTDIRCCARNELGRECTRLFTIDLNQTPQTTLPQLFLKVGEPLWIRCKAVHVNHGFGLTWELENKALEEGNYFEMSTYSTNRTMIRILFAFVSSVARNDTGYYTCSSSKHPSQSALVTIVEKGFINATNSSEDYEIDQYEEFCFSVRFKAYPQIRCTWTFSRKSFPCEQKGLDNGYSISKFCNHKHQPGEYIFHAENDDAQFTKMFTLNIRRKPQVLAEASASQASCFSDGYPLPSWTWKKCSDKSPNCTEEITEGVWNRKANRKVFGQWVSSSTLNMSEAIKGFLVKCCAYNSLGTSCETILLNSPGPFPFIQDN

T2: human wildtype FLT3 expressed on Ba/F3 cells (human, UniProt P36888 27-993)
T2 construct: also called hFLT3 wt; Ba/F3-FLT3
T2 sequence: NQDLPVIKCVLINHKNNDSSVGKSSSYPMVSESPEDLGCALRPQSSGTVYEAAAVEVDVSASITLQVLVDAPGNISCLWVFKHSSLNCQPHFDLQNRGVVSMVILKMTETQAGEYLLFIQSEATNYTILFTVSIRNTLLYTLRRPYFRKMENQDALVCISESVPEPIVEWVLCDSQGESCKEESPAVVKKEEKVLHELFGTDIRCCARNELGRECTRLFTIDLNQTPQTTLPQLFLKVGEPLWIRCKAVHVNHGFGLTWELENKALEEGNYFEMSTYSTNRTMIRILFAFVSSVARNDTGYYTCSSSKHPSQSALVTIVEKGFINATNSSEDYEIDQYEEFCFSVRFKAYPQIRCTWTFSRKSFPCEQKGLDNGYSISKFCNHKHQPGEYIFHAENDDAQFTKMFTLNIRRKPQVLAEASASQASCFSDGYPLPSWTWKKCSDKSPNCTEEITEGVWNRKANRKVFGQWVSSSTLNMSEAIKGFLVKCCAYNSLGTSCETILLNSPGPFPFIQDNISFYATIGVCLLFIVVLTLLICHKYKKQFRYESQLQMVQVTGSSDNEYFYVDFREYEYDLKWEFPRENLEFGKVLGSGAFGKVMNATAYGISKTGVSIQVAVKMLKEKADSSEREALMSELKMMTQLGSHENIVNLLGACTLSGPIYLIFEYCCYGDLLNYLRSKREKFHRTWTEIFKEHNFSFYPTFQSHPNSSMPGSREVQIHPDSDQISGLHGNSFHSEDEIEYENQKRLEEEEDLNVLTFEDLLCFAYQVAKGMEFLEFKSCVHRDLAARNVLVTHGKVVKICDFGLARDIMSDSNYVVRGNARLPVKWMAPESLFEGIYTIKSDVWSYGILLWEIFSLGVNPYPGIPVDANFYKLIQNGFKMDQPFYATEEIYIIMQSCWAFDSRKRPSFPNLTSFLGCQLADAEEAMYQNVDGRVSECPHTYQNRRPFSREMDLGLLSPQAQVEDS

B1: #5 (antibody, human IgG1, kappa, V domains shown)
VH: QVMLVESGGGVVQPGRSLRLSCAASGFTFNNYWMTWVRQAPGKGLEWIASITKTGGGTYYPDSVKGRFTISRDNAKSTLYLQMNSLRSEDTATYYCTTLQQLGVMDAWGQGASVTVSS
VL: DIQMTQSPSVLSASVGDRVTITCRASQNINKELNWYQQKLGKAPKLLIYNTNNLQSGVPSRFSGSGSGTDFTLTISSLQPEDFATYYCFQHKSWPLTFGSGTKLEIKR
notes: also called Humanized clone 5 of 20D9 (VH1 + VK2); Clone #5
B2: #6 (antibody, human IgG1, kappa, V domains shown)
VH: B1 VH with A75S, S88A
VL: B1 VL
notes: also called Humanized clone 6 of 20D9 (VH2 + VK2); Clone #6
B3: #7 (antibody, human IgG1, kappa, V domains shown)
VH: B1 VH with M3Q, P61A, A75S, S77N, S88A, T93V, A112T, S113L
VL: B1 VL
notes: also called Humanized clone 7 of 20D9 (printed as VH3 + VK29); Clone #7
B4: Humanized clone 2 of 20D9 (VH2 + VK1) (antibody, human IgG1, kappa, V domains shown)
VH: B1 VH with A75S, S88A
VL: B1 VL with T22N, K42E, F71Y, F83V, Y87F
B5: Humanized clone 1 of 20D9 (VH1 + VK1) (antibody, human IgG1, kappa, V domains shown)
VH: B1 VH
VL: B1 VL with T22N, K42E, F71Y, F83V, Y87F
B6: #9 (antibody, human IgG1, kappa, V domains shown)
VH: B1 VH
VL: B1 VL with V10S, N28S, L40P, S100Q
notes: also called Humanized clone 9 of 20D9 (VH1 + VK3); Clone #9
B7: #12 (antibody, human IgG1, kappa, V domains shown)
VH: B1 VH with M3Q, V37I, P61A, A75S, S77N, S88A, T93V, A112T, S113L
VL: B1 VL with V10S, N28S, L40P, S100Q
notes: also called Humanized clone 12 of 20D9 (VH4 + VK3); Clone #12
B8: #11 (antibody, human IgG1, kappa, V domains shown)
VH: B1 VH with M3Q, P61A, A75S, S77N, S88A, T93V, A112T, S113L
VL: B1 VL with V10S, N28S, L40P, S100Q
notes: also called Humanized clone 11 of 20D9 (VH3 + VK3); Clone #11
B9: #10 (antibody, human IgG1, kappa, V domains shown)
VH: B1 VH with A75S, S88A
VL: B1 VL with V10S, N28S, L40P, S100Q
notes: also called Humanized clone 10 of 20D9 (VH2 + VK3); Clone #10
B10: Humanized clone 4 of 20D9 (VH4 + VK1) (antibody, human IgG1, kappa, V domains shown)
VH: B1 VH with M3Q, V37I, P61A, A75S, S77N, S88A, T93V, A112T, S113L
VL: B1 VL with T22N, K42E, F71Y, F83V, Y87F
B11: #8 (antibody, human IgG1, kappa, V domains shown)
VH: B1 VH with M3Q, V37I, P61A, A75S, S77N, S88A, T93V, A112T, S113L
VL: B1 VL
notes: also called Humanized clone 8 of 20D9 (VH4 + VK2); Clone #8
B12: Humanized clone 13 of 20D9 (VH3 + VK1; HC-LALA, same as Clone #3 but with LALA mutation in HC constant region) (antibody, human IgG1, kappa, L234A L235A)
heavy: not shown
light: DIQMTQSPSVLSASVGDRVTINCRASQNINKELNWYQQKLGEAPKLLIYNTNNLQSGVPSRFSGSGSGTDYTLTISSLQPEDVATYFCFQHKSWPLTFGSGTKLEIKRTVAAPSVFIFPPSDEQLKSGTASVVCLLNNFYPREAKVQWKVDNALQSGNSQESVTEQDSKDSTYSLSSTLTLSKADYEKHKVYACEVTHQGLSSPVTKSFNRGEC
notes: also called #3-LALA; #3-LALA mab
B13: 4B12 chimeric anti-FLT3 monoclonal antibody (antibody, V domains shown)
VH: QVQLQQSGPGLVQPSQTLSLTCTVSGFSLTSYNVNWVRQPPGKGLEWIGAMWRGGGTDYNPALKSRLSISRDTSKSQVFLKMNRLQTEDTAIYFCTRGFGDYWGQGVMVTVSS
VL: DIQMTQTPLSLSVAIGQSASISCKSSQSLKYSDGKTYLNWVFQSPGQSPKRLIYQVSKLDSGVPDRFSGTGSETDFTLKISRVEAEDLGVYYCCQGSYSPSTFGAGTKLELKR
notes: also called 4B12 mab
B14: 30B12 chimeric anti-FLT3 monoclonal antibody (antibody, V domains shown)
VH: QVQLKVSGPGLVQPSQTLSLTCAVSGFSLSNYHVSWVRQPPGKGLEWIAAISSGGSTYYNSPLKSRLSISRDTSKSQVFLKMNSLQTEDTAIYFCTGEDGYTFGNVMDAWGQGASVTVSS
VL: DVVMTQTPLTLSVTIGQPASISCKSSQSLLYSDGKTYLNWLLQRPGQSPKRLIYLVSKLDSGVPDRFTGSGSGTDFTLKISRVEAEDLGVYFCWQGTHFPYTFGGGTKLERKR
B15: 29H1 chimeric anti-FLT3 monoclonal antibody (antibody, V domains shown)
VH: EVKLEESGGGLVQPGGSMKFFCVASGFTFSNYWMNWVRQSPEKGLEWVAQIKLKSDNYATRYAESVKGRFTISRDDSKSSVNLQMNNLRAEDTGIYYCTVSLARSDYWGQGTTLTVSS
VL: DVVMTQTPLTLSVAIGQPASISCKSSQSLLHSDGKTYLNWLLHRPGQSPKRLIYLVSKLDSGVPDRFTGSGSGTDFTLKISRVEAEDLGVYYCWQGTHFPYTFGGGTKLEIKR
B16: 27E7 chimeric anti-FLT3 monoclonal antibody (antibody, V domains shown)
VH: B15 VH with G10D, F20L, F21S, S30R, K52R, R61H, I72M, N82Y, N87T
VL: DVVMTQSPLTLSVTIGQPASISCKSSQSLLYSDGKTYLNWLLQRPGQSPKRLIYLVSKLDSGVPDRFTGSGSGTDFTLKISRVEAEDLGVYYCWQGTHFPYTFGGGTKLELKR

Target: T1, recombinant human FLT3 protein
Assay: ELISA with recombinant human FLT3 coated to the plate (results of FIG. 13 summarized)
Description: (§1) Maxisorp plates were coated with human recombinant FLT3 protein (10445-H08H, Sino Biological). […] For detection, Attophos Fluorescent Substrate System (S1000, Promega) was applied. The fluorescence was read with excitation of 405 nm and emission at 500-550 nm. The calculation of the dissociation constant KD was performed using GraphPad Prism version 9.4.0.
The 12 clones were subsequently analysed in ELISA assays (FIG. 13). Therefore, recombinant human FLT3 was coated on plates and incubated with the antibody candidates. […] Mean±s.d. of n=3 biological replicates.

Binder | Kd [µg/mL]
B1 | 0.0293
B2 | 0.0335
B3 | 0.0371
B4 | 0.0114
B5 | 0.0114
B6 | 0.0834
B7 | 0.0553
B8 | 0.112
B9 | 0.0778
B10 | 0.011
B11 | 0.0293

Target: T3, c-KIT on Ba/F3 cells (UniProt P10721 26-976, limits assumed)
T3 construct: whole, on cells
T3 sequence (P10721 26-976 limits assumed): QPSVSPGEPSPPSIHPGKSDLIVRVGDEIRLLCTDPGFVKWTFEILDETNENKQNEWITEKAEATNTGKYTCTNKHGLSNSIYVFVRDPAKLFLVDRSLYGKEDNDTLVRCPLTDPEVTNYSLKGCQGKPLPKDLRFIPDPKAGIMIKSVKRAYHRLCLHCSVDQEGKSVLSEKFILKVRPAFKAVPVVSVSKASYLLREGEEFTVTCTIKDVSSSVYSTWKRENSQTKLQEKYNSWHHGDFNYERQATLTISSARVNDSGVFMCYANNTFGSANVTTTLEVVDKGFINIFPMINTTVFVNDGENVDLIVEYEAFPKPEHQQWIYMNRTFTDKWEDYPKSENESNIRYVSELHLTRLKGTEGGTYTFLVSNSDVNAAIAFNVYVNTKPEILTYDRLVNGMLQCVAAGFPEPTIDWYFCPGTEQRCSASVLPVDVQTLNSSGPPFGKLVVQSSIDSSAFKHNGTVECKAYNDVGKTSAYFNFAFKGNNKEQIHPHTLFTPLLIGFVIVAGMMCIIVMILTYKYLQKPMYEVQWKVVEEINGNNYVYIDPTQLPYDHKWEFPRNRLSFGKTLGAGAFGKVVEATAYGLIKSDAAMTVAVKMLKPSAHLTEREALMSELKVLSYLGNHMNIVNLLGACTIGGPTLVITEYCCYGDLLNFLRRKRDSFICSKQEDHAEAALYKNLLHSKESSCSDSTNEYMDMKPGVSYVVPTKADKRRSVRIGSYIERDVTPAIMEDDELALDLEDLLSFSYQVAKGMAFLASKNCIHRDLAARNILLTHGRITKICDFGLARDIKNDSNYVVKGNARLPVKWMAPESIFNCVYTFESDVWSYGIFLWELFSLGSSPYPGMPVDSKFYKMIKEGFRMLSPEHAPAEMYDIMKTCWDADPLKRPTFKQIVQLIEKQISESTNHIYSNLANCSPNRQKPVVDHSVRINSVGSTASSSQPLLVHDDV
Assay: flow cytometry, cell surface binding to Ba/F3 pMIY cells expressing c-KIT, MFI ratio normalized to IgG1, mean ± s.d. of n=3

Binder | binding result
B12 | no binding

Target: T4, human CD64 (high affinity Fc receptor, FCGR1) on cells (human, UniProt P12314 16-374)
T4 construct: whole, on cells; also called hCD64; human FCGR1
T4 sequence (P12314 16-374): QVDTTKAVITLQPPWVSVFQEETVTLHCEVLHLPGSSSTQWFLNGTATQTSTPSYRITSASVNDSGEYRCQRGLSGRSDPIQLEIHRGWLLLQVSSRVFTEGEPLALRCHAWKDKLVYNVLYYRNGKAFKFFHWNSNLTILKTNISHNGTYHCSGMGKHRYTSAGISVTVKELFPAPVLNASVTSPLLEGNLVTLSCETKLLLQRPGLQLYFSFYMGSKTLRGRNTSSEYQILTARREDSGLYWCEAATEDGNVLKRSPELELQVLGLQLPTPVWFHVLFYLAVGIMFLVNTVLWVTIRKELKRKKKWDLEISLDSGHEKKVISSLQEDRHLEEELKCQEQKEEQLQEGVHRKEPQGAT
Assay: flow cytometry, cell surface binding to Ba/F3-pMIY cells expressing CD64, specific MFI, mean ± s.d. of n=3

Binder | binding result
B12 | binds

Target: T5, PDGFRα on Ba/F3 cells (UniProt P16234 24-1089, limits assumed)
T5 construct: whole, on cells
T5 sequence (P16234 24-1089 limits assumed): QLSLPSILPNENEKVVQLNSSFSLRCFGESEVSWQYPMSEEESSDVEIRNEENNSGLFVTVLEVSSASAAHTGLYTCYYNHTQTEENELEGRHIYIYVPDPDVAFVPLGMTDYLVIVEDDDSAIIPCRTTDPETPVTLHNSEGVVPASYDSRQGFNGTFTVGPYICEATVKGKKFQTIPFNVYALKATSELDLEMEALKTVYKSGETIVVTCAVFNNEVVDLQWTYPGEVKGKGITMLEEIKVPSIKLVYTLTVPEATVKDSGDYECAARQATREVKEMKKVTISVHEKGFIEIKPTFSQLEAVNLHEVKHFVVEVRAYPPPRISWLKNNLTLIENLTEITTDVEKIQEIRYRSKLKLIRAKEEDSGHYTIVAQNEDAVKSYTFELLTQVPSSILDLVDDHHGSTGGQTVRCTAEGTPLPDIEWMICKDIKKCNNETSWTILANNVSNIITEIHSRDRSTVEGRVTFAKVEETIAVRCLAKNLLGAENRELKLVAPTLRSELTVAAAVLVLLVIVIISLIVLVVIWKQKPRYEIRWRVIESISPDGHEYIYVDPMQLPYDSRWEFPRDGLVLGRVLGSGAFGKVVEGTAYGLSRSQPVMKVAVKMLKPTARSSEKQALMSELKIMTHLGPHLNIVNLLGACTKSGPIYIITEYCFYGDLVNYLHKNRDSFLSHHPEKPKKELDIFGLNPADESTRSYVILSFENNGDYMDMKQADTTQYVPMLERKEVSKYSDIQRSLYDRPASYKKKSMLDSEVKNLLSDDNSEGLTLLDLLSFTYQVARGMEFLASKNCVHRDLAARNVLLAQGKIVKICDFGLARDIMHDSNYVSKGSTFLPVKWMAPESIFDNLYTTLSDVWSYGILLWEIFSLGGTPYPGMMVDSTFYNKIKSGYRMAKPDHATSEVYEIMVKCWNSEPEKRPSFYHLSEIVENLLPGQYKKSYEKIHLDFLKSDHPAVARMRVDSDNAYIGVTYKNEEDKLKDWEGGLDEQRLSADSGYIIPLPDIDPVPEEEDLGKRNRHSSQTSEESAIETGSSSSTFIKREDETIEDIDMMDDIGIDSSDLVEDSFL
Assay: flow cytometry, cell surface binding to Ba/F3 pMIY cells expressing PDGFRα, MFI ratio normalized to IgG1, mean ± s.d. of n=3

Binder | binding result
B12 | no binding

Target: T2, human wildtype FLT3 expressed on Ba/F3 …
Assay: flow cytometry, cell surface binding to Ba/F3 cells expressing human FLT3 (results of FIG. 14 summarized)

Binder | Binding to human FLT3 (MFI ratio to IgG1 control)
B1 | 42.4
B2 | 41.3
B3 | 45.7
B4 | 96
B5 | 96
B6 | 21.3
B7 | 24.8
B8 | 20.5
B9 | 20.2
B10 | 98.2
B11 | 43.7

Target: CD16 (Fc gamma receptor) on Ba/F3 cells (human, UniProt P08637 17-254)
Assay: flow cytometry, cell surface binding to Ba/F3-pMIY cells expressing CD16, specific MFI, mean ± s.d. of n=3

Binder | binding result
B12 | no binding

Target: T6, CSF1R on Ba/F3 cells (UniProt P07333 20-972, limits assumed)
T6 construct: whole, on cells
T6 sequence (P07333 20-972 limits assumed): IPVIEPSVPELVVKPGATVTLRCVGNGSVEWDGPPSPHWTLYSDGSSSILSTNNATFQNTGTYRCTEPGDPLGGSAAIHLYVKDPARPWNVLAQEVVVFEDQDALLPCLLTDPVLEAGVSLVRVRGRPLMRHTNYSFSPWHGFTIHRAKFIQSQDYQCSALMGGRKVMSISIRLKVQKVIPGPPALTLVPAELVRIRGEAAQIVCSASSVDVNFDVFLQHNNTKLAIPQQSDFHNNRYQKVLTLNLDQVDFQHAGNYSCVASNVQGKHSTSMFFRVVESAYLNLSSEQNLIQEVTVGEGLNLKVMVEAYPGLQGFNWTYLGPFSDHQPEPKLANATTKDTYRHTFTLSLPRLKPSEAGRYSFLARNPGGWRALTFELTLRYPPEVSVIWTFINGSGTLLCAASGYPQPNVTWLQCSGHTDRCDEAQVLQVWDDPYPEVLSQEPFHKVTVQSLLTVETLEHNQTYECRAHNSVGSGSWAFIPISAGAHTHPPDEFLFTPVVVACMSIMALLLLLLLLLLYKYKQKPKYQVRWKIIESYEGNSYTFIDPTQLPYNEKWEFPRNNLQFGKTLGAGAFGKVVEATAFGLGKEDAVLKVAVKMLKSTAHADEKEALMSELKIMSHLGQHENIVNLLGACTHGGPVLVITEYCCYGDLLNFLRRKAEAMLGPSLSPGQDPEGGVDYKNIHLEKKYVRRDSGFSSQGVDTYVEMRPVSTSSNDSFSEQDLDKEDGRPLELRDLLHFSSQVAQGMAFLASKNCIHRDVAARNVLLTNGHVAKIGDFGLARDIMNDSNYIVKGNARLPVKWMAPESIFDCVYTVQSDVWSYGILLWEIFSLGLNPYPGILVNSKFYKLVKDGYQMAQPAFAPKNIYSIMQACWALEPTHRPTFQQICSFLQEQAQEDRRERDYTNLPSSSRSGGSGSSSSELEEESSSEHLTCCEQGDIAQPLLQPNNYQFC
Assay: flow cytometry, cell surface binding to Ba/F3 pMIY cells expressing CSF-1R, MFI ratio normalized to IgG1, mean ± s.d. of n=3

Binder | binding result
B12 | no binding

Target: T7, VEGFR-2 on Ba/F3 cells (UniProt P35968 20-1356, limits assumed)
T7 construct: whole, on cells
T7 sequence (P35968 20-1356 limits assumed): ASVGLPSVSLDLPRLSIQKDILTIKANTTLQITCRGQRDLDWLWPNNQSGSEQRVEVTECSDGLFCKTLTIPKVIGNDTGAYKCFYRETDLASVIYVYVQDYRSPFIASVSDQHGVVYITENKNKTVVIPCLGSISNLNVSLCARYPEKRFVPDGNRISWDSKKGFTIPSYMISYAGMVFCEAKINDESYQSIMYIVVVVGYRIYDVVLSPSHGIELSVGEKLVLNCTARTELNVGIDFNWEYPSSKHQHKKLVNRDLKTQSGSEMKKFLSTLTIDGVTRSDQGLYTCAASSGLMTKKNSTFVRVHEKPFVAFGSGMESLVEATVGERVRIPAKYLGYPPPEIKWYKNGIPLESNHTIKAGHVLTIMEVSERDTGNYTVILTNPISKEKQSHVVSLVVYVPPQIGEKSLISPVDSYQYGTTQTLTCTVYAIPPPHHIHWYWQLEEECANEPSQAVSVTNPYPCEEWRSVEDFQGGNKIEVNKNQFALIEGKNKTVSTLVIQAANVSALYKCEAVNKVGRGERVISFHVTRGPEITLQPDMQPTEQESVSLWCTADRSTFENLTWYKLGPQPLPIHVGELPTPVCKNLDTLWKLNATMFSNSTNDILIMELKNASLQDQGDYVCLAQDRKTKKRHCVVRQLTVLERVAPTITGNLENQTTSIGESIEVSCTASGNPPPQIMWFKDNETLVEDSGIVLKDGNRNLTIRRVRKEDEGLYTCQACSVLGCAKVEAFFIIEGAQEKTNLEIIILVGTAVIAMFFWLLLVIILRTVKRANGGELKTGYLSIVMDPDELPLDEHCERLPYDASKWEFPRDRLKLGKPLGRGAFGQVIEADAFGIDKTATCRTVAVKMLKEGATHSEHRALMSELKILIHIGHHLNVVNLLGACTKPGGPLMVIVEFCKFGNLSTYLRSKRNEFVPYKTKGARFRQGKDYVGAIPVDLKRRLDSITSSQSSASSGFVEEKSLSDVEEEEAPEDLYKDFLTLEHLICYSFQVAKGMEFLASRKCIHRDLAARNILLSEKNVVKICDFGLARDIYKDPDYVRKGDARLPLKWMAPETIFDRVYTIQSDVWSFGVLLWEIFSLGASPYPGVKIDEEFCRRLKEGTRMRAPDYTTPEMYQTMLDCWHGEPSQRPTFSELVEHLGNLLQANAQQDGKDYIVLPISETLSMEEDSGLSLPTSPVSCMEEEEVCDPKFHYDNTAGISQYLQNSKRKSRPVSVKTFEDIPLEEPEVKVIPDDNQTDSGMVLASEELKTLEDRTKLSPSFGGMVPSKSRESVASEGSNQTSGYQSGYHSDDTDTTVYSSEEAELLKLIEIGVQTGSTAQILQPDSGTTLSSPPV
Assay: flow cytometry, cell surface binding to Ba/F3 pMIY cells expressing VEGFR, MFI ratio normalized to IgG1, mean ± s.d. of n=3

Binder | binding result
B12 | no binding

Target: T1, recombinant human FLT3 protein
Assay: ELISA on recombinant human FLT3, normalized to BSA control
Description: as §1

Binder | Kd [µg/mL]
B13 | 0.0319
B14 | 3.31
B15 | 0.0284
B16 | 0.0115

From patent publication US20250049939A1 (TUBULIS, published 2025)
